Numbering of substitutions follows the chain as printed.
Assays:
[1] = biological target: T1, MS2 bacteriophage coat protein (MS2 bacteriophage, UniProt P03612 2-130); test: SPR (Biacore), FIG. 2D
T1 sequence: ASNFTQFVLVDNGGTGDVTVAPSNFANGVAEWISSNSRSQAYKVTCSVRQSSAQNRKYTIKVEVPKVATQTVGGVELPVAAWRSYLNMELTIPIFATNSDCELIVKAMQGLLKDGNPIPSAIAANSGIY

[2] = biological target: T1, MS2 bacteriophage coat protein; test: SPR (Biacore T200), MS2 immobilised on CM5 chip, scFv in solution
Protocol: (§1) Binding affinity measurements for the antibody variants were obtained by surface immobilization of antigen. Specifically, kinetic analysis was performed using a Biacore T200 (GE Healthcare, Waukesha, Wis.). […] For full-length IgGs, a capture assay was used to allow accurate assessment of antibody affinity. […] Surfaces were regenerated using 3 M MgCl₂. Association and dissociation kinetic values (kₐ and kd) were determined from a best fit of the data with the 1:1 Langmuir global fitting procedure to sensorgrams using the Biacore T200 Evaluation Software, version 1.0.

[3] = biological target: T1, MS2 bacteriophage coat protein; test: SPR (Biacore), FIG. 2C
[4] = biological target: T1, MS2 bacteriophage coat protein; test: SPR (Biacore T200), IgG captured on anti-human IgG Fc, MS2 antigen flowed over
Protocol: as §1

[5] = biological target: T1, MS2 bacteriophage coat protein; test: SPR (Biacore), FIG. 7C
[6] = biological target: T1, MS2 bacteriophage coat protein; test: SPR (Biacore)
[7] = biological target: T1, MS2 bacteriophage coat protein; test: SPR (Biacore), FIG. 3D

B1: mouse anti-MS2 scFv (scFv)
scFv: EVKLVESGGGLVKPGGSLKLSCAASGFTFSSYAMSWVRQTPEKRLEWVATISTGGGYTYFPDSVKGRFTISRDNAKNALYLQMKSLRSEDTAMYYCARQGDFGDWYFDVWGAGTTVTVSSGGGGSGGGGSGGGGSDVLMTQTPLSLPVSLGDQASISCRSSQSLVHSNGNTYLHWYLQKPGQSPKLLIYKVSNRFSGVPDRFSGSGSGTDFTLKISRVEAEDLGVYFCSQSTHVPWTFGGGTKLEIK
- koff [1]: 0.008 s⁻¹
- kon [1]: 280000 M⁻¹ s⁻¹
- Kd [2]: 29 nM

B2: APE443 (antibody, V domains shown)
VH: EVQLLESGGGLVQPGGSLRLSCAASGFTFSSYAMSWVRQAPGKGLEWVSTISTGGGYTYFPDSVKGRFTISRDNSKNTLYLQMNSLRAEDTAVYYCARQGDFGDWYFDVWGAGTTVTVSS
VL: DVVMTQSPLSLPVTLGQPASISCRSSQSLVHSNGNTYLHWFQQRPGQSPRRLIYKVSNRFSGVPDRFSGSGSGTDFTLKISRVEAEDVGVYYCSQSTHVPWTFGGGTKLEIK
notes: also called initial CDR-grafted antibody; initial grafted antibody
- Kd [3]: 170 nM
- koff [3]: 0.011 s⁻¹
- kon [3]: 68000 M⁻¹ s⁻¹
- Kd [4]: 84 nM

B3: APE1027 (antibody, V domains shown)
VH: B2 VH with L5V, R19I, A23V, S49C, F60S, I70C
VL: B2 VL with M4L, P12A, T14L, Q27E, S32T, F41Y, R51L, Y92F, H98R
- koff [5]: 8.5e-05 s⁻¹
- kon [5]: 97000 M⁻¹ s⁻¹
- Kd [4]: 0.88 nM

B4: APE849 (antibody, V domains shown)
VH: B2 VH with F60S
VL: B2 VL with Q27E, S32T, F41Y, R51L, Y92F, H98R
- fold improvement in affinity (reference not given) [6]: 40 fold
- Kd [4]: 2 nM

B5: APE850 (antibody, V domains shown)
VH: B2 VH with A23V, F60S
VL: B2 VL with Q27E, S32T, F41Y, R51L, Y92F, H98R
- fold improvement in KD over the initial grafted antibody (APE443) [6]: 85 fold
- fold improvement in ka over the initial grafted antibody (APE443) [6]: 12 fold
- fold improvement in kd over the initial grafted antibody (APE443) [6]: 7 fold
- Kd [4]: 0.985 nM

B6: APE565 (antibody, V domains shown)
VH: B2 VH with S49C, I70C
VL: B2 VL with F41Y, R51L, Y92F
- fold improvement in KD over APE556 [6]: 4 fold
- Kd [4]: 7 nM

B7: APE1052 (antibody, V domains shown)
VH: B2 VH
VL: B2 VL with Q27E, S32T, F41Y, R51L, Y92F, H98R
- fold improvement in KD over the initial grafted antibody (APE443) [6]: 20 fold
- Kd [4]: 4.2 nM

B8: APE1051 (antibody, V domains shown)
VH: B2 VH with A23V
VL: B2 VL with F41Y, R51L, Y92F
- Kd [4]: 15.1 nM

B9: APE830 (antibody, V domains shown)
VH: B2 VH with A23V
VL: B2 VL with Q27E, S32T, F41Y, R51L, Y92F, H98R
- Kd [4]: 1.6 nM

B10: APE556 (antibody, V domains shown)
VH: B2 VH
VL: B2 VL with F41Y, R51L, Y92F
- koff [7]: 0.0055 s⁻¹
- kon [7]: 210000 M⁻¹ s⁻¹
- Kd [4]: 27 nM

From US20140079691A1 (ANAPTYSBIO, published 2014)
